Columns and labels:
[1] = substrate: [H][C@@]12CC=C3C[C@@H](OS(=O)(=O)O)CC[C@]3(C)[C@@]1([H])CC[C@]1(C)C(=O)CC[C@@]21[H]; assay: (§1) TP_TRANSPORTER: uptake in Xenopus laevis oocytes; format: functional, cell-based, Oocyte
[2] = substrate: C[C@]12CC[C@@H]3c4ccc(O)cc4CC[C@H]3[C@@H]1CC[C@@H]2O[C@@H]1O[C@H](C(=O)O)[C@@H](O)[C@H](O)[C@H]1O; assay: as §1; format: functional, cell-based, Oocyte

B1: Solute carrier organic anion transporter family member 1A1 (Mus musculus) (protein)
chain: MEETEKKVATQEGRFFSKMKVFLMSLTCAYLAKSLSGVYMNSMLTQIERQFGIPTSVVGFITGSFEIGNLLLIVFVSYFGRKLHRPIIIGVGCVVMGLGCFLMASPHFLMGRYKYETTISPTSNLSSNSFLCIENRTQTLKPTQDPTECVKEIKSLMWIYVLIGNTMRGIGETPIMPLGISYIEDFAKSENSPLYIGILEMGKIVGPIIGLLLGSFFARVYVDIGSVNTDDLTITPTDTRWVGAWWIGFLVCAGVNILTSIPFFFFPKTLPKKELQDNVDVTKYEKVEKHRERAKKENLGITKDFLPFMKSLCCNPIYMLFSLTSVLQINGFASTFTFLPKYLEQQYGKSTSEAVFLIGVYSLPPVCLGYLISGFIMKKFKITVKKAAYIAFGLSLSEYFIFLCNYLLTCDNFPVAGLTTSYKGVQHPLYGEKNVLADCNTRCSCLTDTWDPVCGDNGLAYMSACLAGCEKSVGTGTNMVFQNCSCIGSSGNSSAVLGLCKKGPECDNKLQYFLIKSVFSSFIFSLAAIPGYMVLLRCVKSEEKSIGVGLHAFFIRLLAGIPAPVYFGALIDRTCLHWGTLKCGQPGACRMYDINRFRHIYLGLPAAVRGSSFLPAVFILILMRKFHFPGDIHSPDTELAEMKLTEKESECTDVCRSPKVENDGELKTKL
Km [1]: 8.2 µM | Km [2]: 8.2 µM
